Reference: patent US20220412989A1, “COMPOSITIONS AND METHODS FOR DETECTING CELLS UNDERGOING FERROPTOSIS USING AN ANTIBODY” (THE TRUSTEES OF COLUMBIA UNIVERSITY IN THE CITY OF NEW YORK, priority 2020, published 2022)
Entries after “also recorded” stand apart in the source; their conditions may differ.

Tests used:
HT-1080 cells = test: Flow cytometry antibody staining without permeabilization; format: cell-based, human
Protocol: HT-1080 cells were treated with DMSO or 1 μM RSL3 for 4 h. The cells were harvested by 0.25% Trypsin-EDTA (1×) (Invitrogen 25200-114) and washed with HBSS once. The cells were resuspended in 5% goat serum (ThermoFisher 50197Z) for 30 min on ice. The cells were incubated with mAb 3F3 FMA (1:500 dilution), Transferrin Receptor/CD71 Monoclonal Antibody, Clone: H68.4, Invitrogen (Thermo Fisher Scientific Cat #13-6800, RRID:AB_2533029, 1:250 dilution), CD71 (3B8 2A1) (Santa Cruz Biotechnology Cat #sc-32272, RRID:AB_627167, 1:50 dilution), Anti-Malondialdehyde antibody (Abcam Cat #ab6463, RRID:AB_305484, 1:400 dilution), Anti-4 Hydroxynonenal antibody (Abcam Cat #ab46544, RRID:AB_722493, 1:50 dilution), and mouse mAb 1F83 (1:100 dilution), which specifically recognizes the malondialdehyde (MDA)-lysine adduct 4-methyl-1,4-dihydropyridine-3,5-dicarbaldehyde (MDHDC) (Yamada et al., 2001) for 1 h on ice. The cells were washed with HBSS for 5 min three times by centrifugation. […] Fluorescence intensity was measured on the FL1 channel with gating to record live cells only (gate constructed from DMSO treatment group). A minimum of 10,000 cells were analyzed per condition. […]

[1] = molecular target: T1, TfR1 in human brain tissue (Homo sapiens, UniProt P02786); test: Staining of post-mortem human brain tissues; conditions: Huntington's disease and control
T1 construct: human HD and control brain tissues were fixed in 4% PFA for 24 h; from tissue; host or cells: post-mortem human brain (Huntington's disease and control)
Protocol: FIGS. 12A-12B show 3F3 FMA staining in human Huntington's disease brains and mouse tissues. In FIG. 12A, human HD and control brain tissues were fixed in 4% PFA for 24 h, perfused in 30% sucrose for 24 h, and stained with DAPI (nuclei, blue) and 3F3 FMA (red). The expression level of TfR1 is low. There was no difference between HD and control groups. In FIG. 12B, mouse liver tissues and mouse GBM tissues were fixed and stained with DAPI (nuclei, blue) and 3F3 FMA (red). 3F3 FMA was able to recognize mouse TfR1.
Tumor tissues were fixed in 4% paraformaldehyde (PFA) for 24 h at 4° C. followed by washing with PBS three times. The tissues were perfused in 30% sucrose for 24 h at 4° C. for cryo-protection. The samples were embedded in OCT cryostat sectioning medium, and then moved directly into a cryostat. After equilibration of temperature, frozen tumor tissues were cut into 5 μm thick sections. Tissue sections were mounted on to poly-L-lysine coated slides by placing the cold sections onto warm slides. […] All images were captured on a Zeiss LSM 800 confocal microscope at Plan-Apochromat 63x/1.40 Oil DIC objective with constant laser intensity for all analyzed samples. The intensity above threshold of the fluorescent signal of the bound antibodies was analyzed using NIH ImageJ software (ImageJ, RRID:SCR_003070). Data were expressed as fold change comparing with the vehicle.

mouse TfR1 protein = molecular target: T2, mouse TfR1 protein (Mus musculus, UniProt Q62351); test: Staining of mouse glioblastoma paraffin-embedded tissue
T2 construct: from tissue; host or cells: murine glioma grown from murine glioma cells injected into c57/B6 mouse brain
Protocol: All procedures were performed according to the Columbia University Medical Center Institutional Animal Care and Use Committee. Murine glioma cell lines were created from tumor bearing mice. These tumors were generated by injection of a PDGF-IRES-Cre retrovirus into the subcortical white matter of mice with floxed PTEN and/or p53 (Sonabend et al., 2013). After mice reached end stage, the tumors were dissociated and primary cell cultures were created. These cells harbored the specific mutations of the original tumors, and could be re-injected to form gliomas in c57/B6 mice with high fidelity. Briefly, mice between the ages of 6-8 weeks received 50,000 murine glioma cells through stereotactic injection after being anesthetized with a ketamine/xylazine cocktail (87.5 mg/12.5 mg w/w). After cessation of toe-pinch reflex, the scalp was shaved and cleaned with serial use of betadine and 70% ethanol swabs. An incision was made and the skull was exposed. A burr hole was created, 2 mm anterior, 2 mm lateral and 2 mm deep to the right of the bregma. The cells were injected into the subcortical white matter over a period of 3 minutes (0.333 μL/min). Once the injection ceased, the needle was left in place for 1 minute before being slowly withdrawn. After tumor developed, brains were harvested and fixed in 4% paraformaldehyde and embedded in paraffin. 5 micron sections were made for staining.

T1 sequence (P02786 whole entry): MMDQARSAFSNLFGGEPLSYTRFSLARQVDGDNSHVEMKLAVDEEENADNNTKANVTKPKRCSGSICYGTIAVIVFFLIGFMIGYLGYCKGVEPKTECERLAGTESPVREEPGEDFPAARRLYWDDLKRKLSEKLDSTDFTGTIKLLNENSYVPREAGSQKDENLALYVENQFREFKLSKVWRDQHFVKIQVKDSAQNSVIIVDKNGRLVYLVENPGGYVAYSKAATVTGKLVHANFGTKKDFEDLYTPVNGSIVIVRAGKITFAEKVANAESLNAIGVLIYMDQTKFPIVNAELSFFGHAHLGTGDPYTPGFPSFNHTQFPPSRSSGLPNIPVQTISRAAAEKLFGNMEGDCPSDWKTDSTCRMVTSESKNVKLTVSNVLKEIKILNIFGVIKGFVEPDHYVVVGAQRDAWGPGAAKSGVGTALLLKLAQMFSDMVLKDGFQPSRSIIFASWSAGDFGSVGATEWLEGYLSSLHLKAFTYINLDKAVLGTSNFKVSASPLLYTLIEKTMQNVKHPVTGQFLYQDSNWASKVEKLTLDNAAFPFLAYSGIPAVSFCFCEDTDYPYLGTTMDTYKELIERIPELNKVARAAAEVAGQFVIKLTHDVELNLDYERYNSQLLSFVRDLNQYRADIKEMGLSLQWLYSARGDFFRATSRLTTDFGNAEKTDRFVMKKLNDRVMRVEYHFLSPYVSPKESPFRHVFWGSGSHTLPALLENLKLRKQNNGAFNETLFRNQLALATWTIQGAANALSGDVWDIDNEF
T2 sequence (Q62351 whole entry): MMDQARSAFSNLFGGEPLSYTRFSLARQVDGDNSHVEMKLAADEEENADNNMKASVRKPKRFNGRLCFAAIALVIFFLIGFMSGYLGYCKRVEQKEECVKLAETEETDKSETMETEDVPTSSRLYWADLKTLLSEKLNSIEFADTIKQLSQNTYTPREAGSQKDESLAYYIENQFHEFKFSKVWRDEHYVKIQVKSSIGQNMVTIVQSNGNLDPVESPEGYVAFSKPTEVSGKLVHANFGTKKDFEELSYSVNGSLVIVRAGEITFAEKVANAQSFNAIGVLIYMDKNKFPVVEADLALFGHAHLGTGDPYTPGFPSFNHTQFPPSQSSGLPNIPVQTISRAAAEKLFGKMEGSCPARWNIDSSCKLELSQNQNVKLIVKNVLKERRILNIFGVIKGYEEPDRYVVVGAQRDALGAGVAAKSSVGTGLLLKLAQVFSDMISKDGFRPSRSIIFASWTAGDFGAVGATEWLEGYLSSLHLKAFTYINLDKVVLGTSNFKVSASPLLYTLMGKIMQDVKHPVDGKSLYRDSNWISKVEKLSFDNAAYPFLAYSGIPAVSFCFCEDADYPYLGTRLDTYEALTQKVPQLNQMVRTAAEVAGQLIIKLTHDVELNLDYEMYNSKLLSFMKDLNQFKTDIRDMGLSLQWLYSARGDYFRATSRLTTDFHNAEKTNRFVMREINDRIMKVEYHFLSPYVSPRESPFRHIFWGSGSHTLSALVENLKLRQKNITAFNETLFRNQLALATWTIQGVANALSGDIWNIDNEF

B1: 3F3-FMA: murine monoclonal IgG1 raised against ferroptotic membrane fractions; antigen is human transferrin receptor protein 1 (TfR1) (antibody, V domains shown)
VH: EVLLQQSGTELVRPGALVKLSCKASGFNIQDLYIHWVKQRPEQGLEWIGWIDPETDNTIYDPKFQGKASITADTSSNTAYLQLSSLTSEDTAMYYCSTGLLQWYFDVWGAGTAVTVSS
VL: DIVMTQSPSSLAMSIGQKVTMRCKSSQSLLNSYNQKNCLAWYQQKPGQSPKLLLYFVSTRESGVPDRFIGSGSGTDFTLTISSVQAEDLADYFCQQHYSTPLTFGAGTKLELK
For B1, the “staining intensity in RSL3-treated cells by flow cytometry” value (HT-1080 cells; 1 μM RSL3, 4 h vs DMSO) was “increased intensities”, the “staining intensity in STS-induced apoptosis by flow cytometry” value (HT-1080 cells; 1 μM STS, 6 h vs DMSO) was “decreased intensity; also recorded: decreased intensities” and the “staining signal in human brain tissue” value [1] was “lack of signal”. The “recognition of TfR1 in mouse GBM tumor samples” value (mouse TfR1 protein) was “able to recognize mouse TfR1 protein”.
